Experiments:
[1] = molecular target: NPY 3-36
[2] = molecular target: 33-mer of gliadin
[3] = molecular target: NPY 1-36 (neuropeptide Y)
[4] = molecular target: resorufin-labeled casein
[5] = molecular target: BSA, P02769
[6] = molecular target: bradykinin (…)

Sequence of BSA, P02769 (P02769 25-607): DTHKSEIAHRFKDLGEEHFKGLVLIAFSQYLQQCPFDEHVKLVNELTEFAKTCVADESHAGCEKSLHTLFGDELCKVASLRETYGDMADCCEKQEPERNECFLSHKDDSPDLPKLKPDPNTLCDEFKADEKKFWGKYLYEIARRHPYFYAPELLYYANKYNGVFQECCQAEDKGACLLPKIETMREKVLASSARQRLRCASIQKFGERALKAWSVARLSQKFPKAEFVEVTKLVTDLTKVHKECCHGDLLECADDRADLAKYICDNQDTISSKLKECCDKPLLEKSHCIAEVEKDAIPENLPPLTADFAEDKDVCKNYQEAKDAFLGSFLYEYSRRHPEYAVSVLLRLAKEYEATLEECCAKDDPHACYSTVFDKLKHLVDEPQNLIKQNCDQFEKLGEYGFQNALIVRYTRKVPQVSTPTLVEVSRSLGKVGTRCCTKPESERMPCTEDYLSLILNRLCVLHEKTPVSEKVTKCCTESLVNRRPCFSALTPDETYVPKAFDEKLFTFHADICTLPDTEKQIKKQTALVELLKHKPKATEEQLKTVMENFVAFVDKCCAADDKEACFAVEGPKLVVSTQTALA

Protein | digestion of the peptide at acidic pH, mass spectrometry [1] | digestion of the peptide by AfuS28 and SedB added together, acidic pH, mass spectrometry [1] | degradation of the peptide by AfuS28 + SedB together, 2 hours at 37 C, pH 4 and pH 8, mass spectrometry [2] | digestion of the peptide at acidic pH, mass spectrometry [3] | degradation of the peptide, products detected by mass spectrometry [1] | full length NPY3-36 remaining after 15 min with 1.8 mU of enzyme at 37 C (degradation kinetics, mass spectrometry) [1] | endoproteolytic activity (release of label from resorufin-labeled casein) [4] | degradation of the peptide, products detected by mass spectrometry [3] | proteolysis of a full length protein substrate [5] | degradation of the peptide, products detected by mass spectrometry [6]
recombinant Aspergillus fumigatus sedolisin SedB (tripeptidyl-peptidase), produced in Pichia pastoris (protein) TSTCDQVITPQCLKDLYNIGDYKADPNGGSKVAFASFLEEYARYDDLAKFEEKLAPYAIGQNFSVIQYNGGLNDQNSASDSGEANLDLQYIVGVSSPIPVTEFSTGGRGLLIPDLSQPDPNDNSNEPYLEFLQNVLKMDQDKLPQVISTSYGEDEQTIPEKYARSVCNLYAQLGSRGVSVIFSSGDSGVGAACLTNDGTNRTHFPPQFPAACPWVTSVGGTTKTQPEEAVYFSSGGFSDLWERPSWQDSAVKRYLKKLGPRYKGLYNPKGRAFPDVAAQAENYAVFDKGVLHQFDGTSCSAPAFSAIVALLNDARLRAHKPVMGFLNPWLYSKASKGFNDIVKGGSKGCDGRNRFGGTPNGSPVVPYASWNATDGWDPATGLGTPDFGKLLSLAMRR | NPY3-36 was not digested by recombinant SedB | AfuS28 and SedB added together degraded NPY3-36 in Y, di- and tri-peptides | The enzyme composition AfuS28+SedB provides complete degradation of gliadin into several di-, tri-, tetra- and pentapeptides | this enzyme removed tripeptides (YPS, KPD and NPG) from the N-terminus of NPY1-36 until position 10 |  |  |  |  |  | 
recombinant Aspergillus fumigatus prolyl protease AfuS28, His6-tagged, produced in Pichia pastoris (protein) LMPRAPLIPAMKAKVALPSGNATFEQYIDHNNPGLGTFPQRYWYNPEFWAGPGSPVLLFTPGESDAADYDGFLTNKTIVGRFAEEIGGAVILLEHRYWGASSPYPELTTETLQYLTLEQSIADLVHFAKTVNLPFDEIHSSNADNAPWVMTGGSYSGALAAWTASIAPGTFWAYHASSAPVQAIYDFWQYFVPVVEGMPKNCSKDLNRVVEYIDHVYESGDIERQQEIKEMFGLGALKHFDDFAAAITNGPWLWQDMNFVSGYSRFYKFCDAVENVTPGAKSVPGPEGVGLEKALQGYASWFNSTYLPGSCAEYKYWTDKDAVDCYDSYETNSPIYTDKAVNNTSNKQWTWFLCNEPLFYWQDGAPKDESTIVSRIVSAEYWQRQCHAYFPEVNGYTFGSANGKTAEDVNKWTKGWDLTNTTRLIWANGQFDPWRDASVSSKTRPGGPLQSTEQAPVHVIPGGFHCSDQWLVYGEANAGVQKVIDEEVAQIKAWVAEYPKYRKPHHHHHH |  | AfuS28 and SedB added together degraded NPY3-36 in Y, di- and tri-peptides | The enzyme composition AfuS28+SedB provides complete degradation of gliadin into several di-, tri-, tetra- and pentapeptides |  | AfuS28 was also found to degrade NPY1-36 and NPY3-36, cleaving after proline residues | Less than 10% of full length NPY3-36 was still present after 15 min incubation | Recombinant AfuS28 showed no detectable proteolytic activity using casein resorufin-labeled as a substrate | AfuS28 was also found to degrade NPY1-36 and NPY3-36, cleaving after proline residues | AfuS28 does not attack full length protein substrates such as resorufin-labeled casein and BSA | Digestion of bradykinin (RPPGFSPFR, SEQ ID NO:28) resulted in RPP, FR, GFSPFR (SEQ ID NO:35) and PGFSPFR (SEQ ID NO:36) fragments

Source: US20120276075
